Legend:
Assay in all cases: cell-based or functional assay
[1] = target: HLA-B*08:01 (human)
[2] = target: HLA-B*51:01 (human)
[3] = target: HLA-B*07:02 (human)

Row | % Positive donors (after 12 days of stimulation), IFNγ ELISpot [1] [%] | % Positive donors (after 12 days of stimulation), IFNγ ELISpot [2] [%] | % Positive donors (after 12 days of stimulation), IFNγ ELISpot [3] [%] | Binder
1 | 68.8 | 62.5 |  | LPYPRGYTL (modifications not checked) [UL26 61-69 …]
2 | 90.9 |  | 25 | LPHERHREL (modifications not checked) [UL34 180-188 …]

— US20220332764A1, “T CELL EPITOPES OF HCMV AND USES OF THEREOF” (EBERHARD KARLS UNIVERSITÄT TÜBINGEN, priority 2019, published 2022)
